In this data set the target is Heat shock cognate protein 70 (Hsc70) (UniProt P11142).
Chain of Heat shock cognate protein 70 (Hsc70) (P11142 2-646): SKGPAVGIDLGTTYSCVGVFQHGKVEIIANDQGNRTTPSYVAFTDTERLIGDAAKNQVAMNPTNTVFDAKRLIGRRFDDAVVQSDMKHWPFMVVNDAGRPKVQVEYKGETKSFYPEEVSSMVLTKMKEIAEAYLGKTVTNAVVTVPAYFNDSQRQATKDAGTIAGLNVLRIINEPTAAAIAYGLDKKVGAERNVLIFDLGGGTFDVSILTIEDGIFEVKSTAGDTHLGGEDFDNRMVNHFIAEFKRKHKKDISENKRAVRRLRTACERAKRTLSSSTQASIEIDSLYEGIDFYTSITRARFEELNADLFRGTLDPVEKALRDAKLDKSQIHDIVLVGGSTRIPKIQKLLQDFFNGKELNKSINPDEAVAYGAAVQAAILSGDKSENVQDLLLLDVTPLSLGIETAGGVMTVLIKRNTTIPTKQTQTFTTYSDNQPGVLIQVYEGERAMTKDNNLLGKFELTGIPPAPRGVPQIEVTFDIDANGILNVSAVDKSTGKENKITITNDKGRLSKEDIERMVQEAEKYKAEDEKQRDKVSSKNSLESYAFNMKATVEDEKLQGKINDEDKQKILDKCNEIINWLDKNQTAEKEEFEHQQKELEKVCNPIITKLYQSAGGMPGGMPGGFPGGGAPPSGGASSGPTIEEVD

As for “recombinant His-tagged 2A^pro (2A protease of EV-A71)”, the “cleavage of eIF4G by recombinant 2A^pro in vitro (immunoblot)” value is reported as “the cleaved eIF4G was up-regulated in Hsc70 overexpressed cells, indicating an increase of 2A^pro proteolytic activity upon increased Hsc70 level”.

These data come from patent US11266675.
